B1: DCN1-like protein 3 (Homo sapiens), Q8IWE4 (parent)
chain: MGQCVTKCKNPSSTLGSKNGDREPSNKSHSRRGAGHREEQVPPCGKPGGDILVNGTKKAEAATEACQLPTSSGDAGRESKSNAEESSLQRLEELFRRYKDEREDAILEEGMERFCNDLCVDPTEFRVLLLAWKFQAATMCKFTRKEFFDGCKAISADSIDGICARFPSLLTEAKQEDKFKDLYRFTFQFGLDSEEGQRSLHREIAIALWKLVFTQNNPPVLDQWLNFLTENPSGIKGISRDTWNMFLNFTQVIGPDLSNYSEDEAWPSLFDTFVEWEMERRKREGEGRGALSSGPEGLCPEEQT

Variants of: B1
Details: with cul3_human CUL3, Q13618

Variant	effect of a mutation on the interaction
D241A;A265R;D271A	disrupting interaction strength

Source: IntAct's records for PubMed 19617556
